T1: CHO produced recombinant Bet v 1 containing a S85A mutation with a C-terminal myc-myc hexahistidine tag … (Betula verrucosa (birch))
T1 chain: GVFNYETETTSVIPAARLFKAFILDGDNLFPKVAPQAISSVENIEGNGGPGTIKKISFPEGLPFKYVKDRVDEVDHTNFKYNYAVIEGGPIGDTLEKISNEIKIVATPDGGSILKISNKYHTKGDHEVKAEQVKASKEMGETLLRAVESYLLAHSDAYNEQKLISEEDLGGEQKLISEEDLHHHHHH

T2: European Hornbeam (Car b 1 isoform 2, MyBiosource, Cat #MBS1043940) (European Hornbeam, UniProt P38950 2-160, limits assumed)
T2 construct: Bought reagent
T2 sequence (looked up): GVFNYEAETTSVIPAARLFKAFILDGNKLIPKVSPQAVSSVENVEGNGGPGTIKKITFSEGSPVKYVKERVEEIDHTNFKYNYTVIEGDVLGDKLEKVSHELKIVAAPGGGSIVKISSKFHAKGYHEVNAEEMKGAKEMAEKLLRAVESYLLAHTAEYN

T3: Celery (Api g 1, MyBiosource, Cat #MBS1171376) (Celery, UniProt P49372 1-154, limits assumed)
T3 construct: Bought reagent
T3 sequence (looked up): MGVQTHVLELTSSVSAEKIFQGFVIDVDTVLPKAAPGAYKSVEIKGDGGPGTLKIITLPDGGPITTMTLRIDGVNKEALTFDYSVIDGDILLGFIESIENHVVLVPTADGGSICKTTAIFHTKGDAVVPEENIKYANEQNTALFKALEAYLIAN

T4: Apple (Mal d 1, MyBiosource, Cat #MBS1224919) (Apple, UniProt P43211 2-159, limits assumed)
T4 construct: Bought reagent
T4 sequence (looked up): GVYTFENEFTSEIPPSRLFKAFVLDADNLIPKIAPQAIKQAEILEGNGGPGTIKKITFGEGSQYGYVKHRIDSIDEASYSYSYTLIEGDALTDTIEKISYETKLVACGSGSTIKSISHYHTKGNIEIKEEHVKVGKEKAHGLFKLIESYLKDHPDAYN

T5: Alder (Aln g 1, MyBiosource, Cat #MBS1041484) (Alder, UniProt P38948 2-160, limits assumed)
T5 construct: Bought reagent
T5 sequence (looked up): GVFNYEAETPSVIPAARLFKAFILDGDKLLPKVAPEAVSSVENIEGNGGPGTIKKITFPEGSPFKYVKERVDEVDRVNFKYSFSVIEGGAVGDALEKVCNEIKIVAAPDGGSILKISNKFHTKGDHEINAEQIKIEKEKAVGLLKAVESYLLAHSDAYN

T6: European Hornbeam (Car b 1 isoform 1A & 1B, MyBiosource, Cat #MBS1200018) (European Hornbeam, UniProt P38949 2-160)
T6 construct: Bought reagent
T6 sequence (looked up): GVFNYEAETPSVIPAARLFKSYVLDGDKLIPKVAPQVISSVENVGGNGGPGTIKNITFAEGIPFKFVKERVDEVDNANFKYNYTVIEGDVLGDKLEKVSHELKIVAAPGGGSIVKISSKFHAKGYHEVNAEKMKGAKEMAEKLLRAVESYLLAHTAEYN

B1: H4H17001P (antibody, human IgG4, V domains shown)
VH: QVQLVESGGGLVKPGGSLRLSCAASGFTFSDYYMNWIRQAPGKGLEWISLISSSGSAIYYSDSVKGRFTISRDNARKSLYLQVNSLRAEDTAVYYCARDRGEWALGAYYYGLDVWGQGTTVTVSS
VL: DIVMTQSPLSLPVTPGEPASISCRSSQSLLHSDGYNYLDWYLQKSGQSPQLLIYLGSNRASGVPDRFSGSGSGTDFTLKISRMEAEDVGVYYCMQALQTPYTFGQGTKLEIK
notes: Fully human antibody with human IgG4 Fc (H4H prefix)
B2: H4H16991P (antibody, human IgG4, V domains shown)
VH: QVQLVQSGAEVRKPGASVKVSCKASGYTFTGYYLHWVRQAPGQGLEWMGLINPNTGGTNFAQKFQGRVTMTRDSSISAAYMELSRLRSDDTAVYYCARQHWNRYFDNWGQGTLVTVSS
VL: DIQMTQSPSTLSASVGDRVTITCRASQSVGNWLAWYQQKPGKAPKLLIQEASSIESGVPSRFSGSGSGTEFTLIVSSLQPDDFATYYCQQYNSYSWTFGHGTKVEIK
notes: as for B1
B3: H4H16987P (antibody, human IgG4 S228P, kappa, V domains shown)
VH: EVQLVESGGGLVQPGGSLRLSCAASGFTVSSNSMSWVRQAPGEGLEWVSVIFSGGITYYSDSVKGRFTISRHNSKNTLYLQMNSLRTEDTAVYYCARHSNWNFDAFDIWGQGTMVTVSS
VL: DIQMTQSPSSLSASVGDRVTITCRASQSFDTYLNWYQQKPGKAPNLLIYATSSLQSGVPSRFSGSGSGTDFTLTISSLQPEDFGTYYCQQSYSIPYTFGQGTKLEIKR
notes: human IgG4 Fc; also called MAB4
B4: H4H16971P (antibody, human IgG4, V domains shown)
VH: QVQLVESGGGVVQPGRSLRLSCAASGFTFSSYGLHWVRQAPGKGLEWVAVISDDGSYKFYADSMKGRFTISRDNSKNTLYLQMNSLRAEDTAVYYCAKDRGRSGWYYFDYWGQGTLVTVSS
VL: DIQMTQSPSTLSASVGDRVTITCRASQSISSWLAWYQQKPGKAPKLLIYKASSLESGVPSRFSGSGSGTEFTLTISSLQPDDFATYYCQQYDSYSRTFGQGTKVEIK
notes: as for B1
B5: H4H16979P (antibody, human IgG4, V domains shown)
VH: QVQLVQSGAEVKKPGASVKVSCKASGYTFIAYYLHWVRQAPGQGLEWMGLLNPYTGGSYYTQKFQGRVTMTRDTSIDTAYMELNSLRSDDTAIYYCARDKRSYYIPYAFEIWGQGTMVTVSS
VL: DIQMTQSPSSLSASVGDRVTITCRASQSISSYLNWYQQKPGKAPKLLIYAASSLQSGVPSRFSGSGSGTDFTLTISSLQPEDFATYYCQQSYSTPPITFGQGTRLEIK
notes: as for B1

The first experiment has as its target T1, CHO produced recombinant Bet v 1 …. The experiment in a line: SPR, mAb captured via anti-hFc, 37 C.
Protocol: (§1) Equilibrium dissociation constants (KD) for natural Bet v 1 binding to purified anti-Bet v 1 monoclonal antibodies were determined using a real-time surface plasmon resonance biosensor (SPR-Biacore) on a Biacore 4000 instrument. All binding studies were performed in 10 mM HEPES, 150 mM NaCl, 3 mM EDTA, and 0.05% v/v surfactant Tween-20, pH 7.4 (HBS-ET) running buffer at 25° C. and 37° C. […] Association (kₐ) and dissociation (kd) rate constants were determined by fitting the real-time binding sensorgrams to a 1:1 binding model with mass transport limitation using Scrubber 2.0c curve-fitting software. Binding dissociation equilibrium constants (KD) and dissociative half-lives (t½) were calculated from the kinetic rate constants as:
Regarding B1, the “100 nM natural Bet v 1-MHH Bound (RU)” value is 2 RU.
As for B2, the “100 nM natural Bet v 1-MHH Bound (RU)” value was 67 RU, the Kd came to 1.48 nM, the off-rate (koff) was 0.00106 s⁻¹ and the on-rate (kon) was found to be 717000 M⁻¹ s⁻¹. Moreover, the t½ worked out at 11 min.
The matching figures for B3: 36 RU, 106 nM, 0.0847 s⁻¹, 795000 M⁻¹ s⁻¹ and 0.14 min.
For B4, the “100 nM natural Bet v 1-MHH Bound (RU)” value was determined as 60 RU, the Kd came out at 18.6 nM, the koff came out at 0.012 s⁻¹ and the kon was determined as 648000 M⁻¹ s⁻¹. The t½ worked out at 1 min.
As to B5, the “100 nM natural Bet v 1-MHH Bound (RU)” value was 56 RU, the Kd is 1.58 nM, the koff is 0.00073 s⁻¹ and the kon stood at 462000 M⁻¹ s⁻¹. Further, the t½ was 16 min.

The next experiment deals with T2, European Hornbeam (Car b 1 isoform 2, …). The experiment in a line: SPR, mAb captured via anti-hFc, 25 C.
Protocol: (§2) Equilibrium dissociation constants (KD) for different related allergens binding to purified anti-Bet v 1 monoclonal antibodies were determined using a real-time surface plasmon resonance biosensor (SPR-Biacore) on a Biacore 4000 instrument. All binding studies were performed in 10 mM HEPES, 150 mM NaCl, 3 mM EDTA, and 0.05% v/v surfactant Tween-20, pH 7.4 (HBS-ET) running buffer at 25° C. […] Binding studies were performed on the following related allergens: Alder (Aln g 1, MyBiosource, Cat #MBS1041484), Apple (Mal d 1, MyBiosource, Cat #MBS1224919), Carrot (Dau c 1.2, MyBiosource, Cat #MBS1212920), Celery (Api g 1, MyBiosource, Cat #MBS1171376), Celery (Api g 2, MyBiosource, Cat #MBS1047880), European Hornbeam (Car b 1 isoform 1A & 1B, MyBiosource, Cat #MBS1200018), European Hornbeam (Car b 1 isoform 2, MyBiosource, Cat #MBS1043940), Hazel (Cor A 1, MyBiosource, Cat #MBS5304600), and White Oak (Que a 1, MyBiosource, Cat #MBS1258822). […] Association (kₐ) and dissociation (kd) rate constants were determined by fitting the real-time binding sensorgrams to a 1:1 binding model with mass transport limitation using Scrubber 2.0c curve-fitting software. Binding dissociation equilibrium constants (KD) and dissociative half-lives (t½) were calculated from the kinetic rate constants as:
As for B1, the “100 nM Analyte Bound (RU)” value was determined as 157 RU, binding was put at a Kd of 1.58 nM, the koff is 0.0032 s⁻¹ and the kon was 2.03e+06 M⁻¹ s⁻¹. Moreover, the t½ came to 3.6 min.
In the case of B2, the “100 nM Analyte Bound (RU)” value turned out to be 93 RU, binding was characterised by a dissociation constant (Kd) of 37.8 nM, the off-rate (koff) amounted to 0.0404 s⁻¹ and the kon stood at 1.07e+06 M⁻¹ s⁻¹. The molecule also had a t½ of 0.3 min.
Turning to B3, the “100 nM Analyte Bound (RU)” value was 153 RU; the affinity, expressed as Kd, was 5.56 nM; the koff came out at 0.00561 s⁻¹; the kon is 1.01e+06 M⁻¹ s⁻¹. The molecule further had a t½ of 2.1 min.
In the case of B4, the “100 nM Analyte Bound (RU)” value was determined as 23 RU, the Kd was 564 nM, the koff worked out at 0.146 s⁻¹ and the kon was determined as 259000 M⁻¹ s⁻¹. The t½ was found to be 0 min.
Turning to B5, the “100 nM Analyte Bound (RU)” value is 114 RU, binding was put at a Kd of 2.48 nM, the koff amounted to 0.00241 s⁻¹ and the kon is 971000 M⁻¹ s⁻¹. In addition, the t½ was 4.8 min.

Another experiment deals with T3, Celery (Api g 1, MyBiosource, Cat …). The experiment in a line: SPR, mAb captured via anti-hFc, 25 C.
Consider B1, for which the “100 nM Analyte Bound (RU)” value is -1 RU.
As for B2, the “100 nM Analyte Bound (RU)” value is 0 RU and the binding result is listed as “no binding (tested: 100 nM)”.
On the same counts, the results for B3 are 1 RU and “no binding (tested: 100 nM)”.
In the case of B4, the “100 nM Analyte Bound (RU)” value worked out at 0 RU and the binding result was “no binding (tested: 100 nM)”.
On to B5, for which the “100 nM Analyte Bound (RU)” value amounted to 0 RU and the binding result is “no binding (tested: 100 nM)”.

The target of a further experiment is T4, Apple (Mal d 1, MyBiosource, Cat …). Briefly: SPR, mAb captured via anti-hFc, 25 C.
Protocol: as §2
For B1, the “100 nM Analyte Bound (RU)” value turned out to be 0 RU and the binding result is reported as “no binding (tested: 100 nM)”.
As for B2, the “100 nM Analyte Bound (RU)” value was found to be 0 RU and the binding result was “no binding (tested: 100 nM)”.
On the same counts, the results for B3 are 2 RU and “no binding (tested: 100 nM)”.
In the case of B4, the “100 nM Analyte Bound (RU)” value is 25 RU, the Kd turned out to be 494 nM, the koff was determined as 0.0795 s⁻¹ and the kon was 161000 M⁻¹ s⁻¹. Moreover, the t½ was found to be 0.2 min.
As to B5, the “100 nM Analyte Bound (RU)” value turned out to be 1 RU and the binding result was “no binding (tested: 100 nM)”.

In another experiment the target is T1, CHO produced recombinant Bet v 1 …. Briefly: SPR, mAb captured via anti-hFc, 25 C.
Protocol: as §1
Turning to B1, the “100 nM natural Bet v 1- MMH Bound (RU)” value was determined as 1 RU and the binding result is on record as “no binding (tested: 100 nM)”.
As for B2, the “100 nM natural Bet v 1- MMH Bound (RU)” value came out at 61 RU, the Kd came to 0.735 nM, the koff was 0.000287 s⁻¹ and the kon stood at 390000 M⁻¹ s⁻¹. For the same molecule, the t½ came to 40 min.
For the molecule B3, the “100 nM natural Bet v 1- MMH Bound (RU)” value was found to be 46 RU, the Kd worked out at 43.8 nM, the koff was 0.0215 s⁻¹ and the kon worked out at 490000 M⁻¹ s⁻¹. Besides, the t½ worked out at 0.5 min.
Take B4: the “100 nM natural Bet v 1- MMH Bound (RU)” value worked out at 58 RU, the Kd is 9.48 nM, the koff is 0.00386 s⁻¹ and the kon was 407000 M⁻¹ s⁻¹. The t½ was determined as 3 min.
On to B5, for which the “100 nM natural Bet v 1- MMH Bound (RU)” value is 46 RU, the Kd came out at 0.804 nM, the dissociation rate constant (koff) came out at 0.00023 s⁻¹ and the kon amounted to 286000 M⁻¹ s⁻¹. The t½ turned out to be 50 min.

The target in another experiment is T5, Alder (Aln g 1, MyBiosource, Cat …). The experiment in a line: SPR, mAb captured via anti-hFc, 25 C.
Protocol: as §2
With B1, the “100 nM Analyte Bound (RU)” value amounted to 49 RU, binding was characterised by a dissociation constant (Kd) of 105 nM, the koff was determined as 0.0278 s⁻¹ and the kon is 264000 M⁻¹ s⁻¹. The molecule further showed a t½ of 0.4 min.
On to B2, for which the “100 nM Analyte Bound (RU)” value worked out at 3 RU and the binding result is given as “no binding (tested: 100 nM)”.
For B3, the “100 nM Analyte Bound (RU)” value is 139 RU, binding was put at a Kd of 3.94 nM, the koff worked out at 0.00087 s⁻¹ and the kon came to 221000 M⁻¹ s⁻¹. This molecule also had a t½ of 13 min.
On the same counts, the results for B4 are 41 RU, 126 nM, 0.0118 s⁻¹, 93000 M⁻¹ s⁻¹ and 1 min.
For B5, the “100 nM Analyte Bound (RU)” value amounted to 0 RU and the binding result is “no binding (tested: 100 nM)”.

The next experiment addresses T6, European Hornbeam (Car b 1 isoform 1A & …). The experiment in a line: SPR, mAb captured via anti-hFc, 25 C.
Protocol: as §2
As to B1, the “100 nM Analyte Bound (RU)” value came out at 0 RU and the binding result was “no binding (tested: 100 nM)”.
B2: the “100 nM Analyte Bound (RU)” value stood at 1 RU and the binding result was “no binding (tested: 100 nM)”.
In the case of B3, the “100 nM Analyte Bound (RU)” value was found to be 0 RU and the binding result is listed as “no binding (tested: 100 nM)”.
With B4, the “100 nM Analyte Bound (RU)” value was 1 RU and the binding result is given as “no binding (tested: 100 nM)”.
On to B5, for which the “100 nM Analyte Bound (RU)” value was 1 RU and the binding result is “no binding (tested: 100 nM)”.

For the origin of these results see patent US20240083986A1 (published 2024).
